US20180021429A1, “ANTICANCER AGENTS OR ANTIMETASTATIC AGENTS USING FSTL1 AND COMBINATION DRUG THEREOF” (PHARMA FOODS INTERNATIONAL CO., LTD., priority 2015, published 2018)
Entries after “also recorded” stand apart in the source; their conditions may differ.

Tested on: induction of mesenchymal stem cells (MSCs) by FSTL1
Assay: Inhibitory activity against induction of MSC by FSTL1, CD45-negative cells (Examples 6, 8, 12)
Assay type: cell-based, mouse
Conditions: antibody 10 μg/mL
Description: (§1) Mouse bone marrow cells prepared in the same way as in Example 4 were supplemented with 50 ng/mL (final concentration) of FSTL1 and 10 μg/mL of the anti-FSTL1 antibody (#5-2, #5-3, #5-8, #5-10, 45-43, #6-55, or #7-34) or a control antibody anti-DNP antibody and cultured under stimulation. 11 days thereafter, the number of cells was counted while the cells were stained with a PE-Cy5-labeled anti-CD45 antibody (BD Pharmingen/Becton, Dickinson and Company, Cat. No. 555484), and the content of CD45-negative cells reported to generally contain MSCs at a high rate was analyzed by flow cytometry using FACScan to calculate the percentage and number of MSCs per culture (FIG. 5A).
(§2) Mouse bone marrow cells prepared in the same way as in Example 4 were supplemented with 20 ng/mL (final concentration) of FSTL1 and 10 μg/mL of the anti-FSTL1 antibody (#5-2, #5-3, #5-8, #5-10, #5-43, #6-55, #8-1, #8-4, #8-7, and #8-8) or a control antibody anti-DNP antibody and cultured under stimulation. 8 days thereafter, the number of cells was counted while the cells were stained with a PE-Cy5-labeled anti-CD45 antibody, and the content of CD45-negative cells was analyzed by flow cytometry using FACScan to calculate the percentage and number of MSCs per culture (FIG. 6A).
as §2, with “(#5-2,” for “(#5-2, #5-3,”, “#5-8,” for “#5-8, #5-10, #5-43,”, “#6-55, #7-34,” for “#6-55,”, “#8-7, or” for “#8-7, and”, “(FIG. 7).” for “(FIG. 6A).”
as §1, with “35A).” for “5A).”
as §2, with “36A).” for “6A).”
as §2, with “(#5-2,” for “(#5-2, #5-3,”, “#5-8,” for “#5-8, #5-10, #5-43,”, “#6-55, #7-34,” for “#6-55,”, “#8-7, or” for “#8-7, and”, “(FIG. 37).” for “(FIG. 6A).”

[1] = Example 6, FIG. 5A/35A, FSTL1 50 ng/mL, 11 days
[2] = Example 8, FIG. 6A/36A, FSTL1 20 ng/mL, 8 days
[3] = Example 12, FIG. 7/37, FSTL1 20 ng/mL, 8 days

B1: #5-43: chicken-mouse chimeric anti-FSTL1 antibody clone; variable regions SEQ ID NO: 779 (light), 781 (heavy) (antibody, V domains shown)
VH: AVTLDESGGGLQTPGGGLSLVCKGSGFTFSSFNMFWVRQAPGKGLEWVAGIGKDGGTGYGAAVDGRATISKDSGQSTLRLQLNNLRAEDTGTYYCAKAAGGCSYDWCGAYTGDIDTWGHGTEVIVSS
VL: ASTQPSSVSANPGEAVKITCSGGSGSYYGWYQQKSPGSAPVTVIYNNNQRPSDIPSRFSGSKSGSTATLTITGVQAEDEAVYFCGGYDSSTGHGGIFGAGTTLTVL
modifications: mouse constant regions
inhibitory activity against the expansion of CD45-negative cells by FSTL1 [1]: higher inhibitory activity and substantially completely inhibited the action of FSTL1 | inhibitory activity against the expansion of CD45-negative cells by FSTL1 [2]: exhibited inhibitory activity against the expansion of CD45-negative cells by FSTL1; also recorded: Inhibitory activity was confirmed

B2: #8-1: chicken-mouse chimeric anti-FSTL1 antibody clone; variable regions SEQ ID NO: 791 (light), 793 (heavy) (antibody, V domains shown)
VH: AVTLDESGGGLQTPGGALSLVCKGSGFTFSSFNMFWVRQAPGKGLEWVAGIGKDGVPKYGAAVDGRATISKDNGQSTMRLQLNNLRAEDTGTYFCAKAAGGCSYDWCGIYAGDIDTWGHGTEVIVSS
VL: ASTQPSSVSANPGEAVKITCSGGSGSYYGWYQQKSPGSAPVTVIYNNNQRPSDIPSRFSGSKSGSTATLTITGVQAEDEAVYFCGGYDSSSGHGGIFGAGTTLTVL
modifications: mouse constant regions
inhibitory activity against the expansion of CD45-negative cells by FSTL1 [2]: exhibited inhibitory activity against the expansion of CD45-negative cells by FSTL1; also recorded: Inhibitory activity was confirmed

B3: #5-3: chicken-mouse chimeric anti-FSTL1 antibody clone; variable regions SEQ ID NO: 767 (light), 769 (heavy) (antibody, V domains shown)
VH: AVTLDESGGGLQTPGGALSLVCKGSGFSFSSFNMFWVRQAPGKGLEWVAGIGKDGVPKYGAAVDGRATISKDNGQSTMRLQLNNLRAEDTGTYFCAKAAGGCSYDWCGIYAGDIDTWGHGTEVIVSS
VL: ASTQPSSVSANPGETVKITCSGGSGYYYGWYQQKSPGSVPVTVIYNNNNRPSDIPSRFSGSKSGSTGTLTITGVRAEDEAVYYCGGYDNSGTGIFGAGTTLTVL
modifications: mouse constant regions
inhibitory activity against the expansion of CD45-negative cells by FSTL1 [1]: higher inhibitory activity and substantially completely inhibited the action of FSTL1

B4: #5-2: chicken-mouse chimeric anti-FSTL1 antibody clone; variable regions SEQ ID NO: 763 (light), 765 (heavy) (antibody, V domains shown)
VH: AVTLDESGGGLQTPGGGLSLVCKGSGFTFSSFNMFWVRQAPGKGLEWVAGVGKDGGTGYGAAVDGRATISKDNGQSTLRLQLNNLRAEDTGTYYCAKAAGGCSYGWCGSYVGDIDAWGHGTEVIVSS
VL: ASTQPSSVSANPGEAVKITCSGGSGSYYGWYQQKSPGSAPVTVIYNNNQRPSDIPSRFSGSKSGSTATLTITGVQAEDEAVYFCGGYDSSTGHGGIFGAGTTLTVL
modifications: mouse constant regions
inhibitory activity against the expansion of CD45-negative cells by FSTL1 [3]: higher inhibitory activity was confirmed in the order of #7-34, #5-2, #6-55, and #8-7; also recorded: stronger inhibitory activity was confirmed in the order of clone #7-34, #5-2, 46-55, and #8-7

B5: #5-8: chicken-mouse chimeric anti-FSTL1 antibody clone; variable regions SEQ ID NO: 771 (light), 773 (heavy) (antibody, V domains shown)
VH: AVTLDESGGGLQTPGGGLSLVCKGSGFTFSSFNMFWVRQAPGKGLEWVAGIGKDGVPKYGTAVDGRATISKDNGQSTMRLQLNNLRAEDTGTYFCAKAAGGCSYDWCGIYTGDIDTWGHGTEVIVSS
VL: ASTQPSSVSANPGEAVKITCSGGSGSYYGWYQQKSPGSAPVTVIYNNNQRPSDIPSRFSGSKSGSTATLTITGVQAEDEAVYFCGGYDSSTGHGGIFGAGTTLTVL
modifications: mouse constant regions
inhibitory activity against the expansion of CD45-negative cells by FSTL1 [1]: higher inhibitory activity and substantially completely inhibited the action of FSTL1 | inhibitory activity against the expansion of CD45-negative cells by FSTL1 [2]: exhibited inhibitory activity against the expansion of CD45-negative cells by FSTL1; also recorded: Inhibitory activity was confirmed

B6: #8-4: chicken-mouse chimeric anti-FSTL1 antibody clone; variable regions SEQ ID NO: 795 (light), 797 (heavy) (antibody, V domains shown)
VH: AVTLDESGGGLQTPGGGLSLVCKGSGFTLSSFNMFWVRQAPGKGLEWVAGVGKDGGTAYGAAVDGRATISRDSGQSTVRLQLNNLRAEDTGTYFCAKAAGGCSYSWCGAYVGDLDAWGHGTEVIVSS
VL: ASSQPSSVSANPGETVKITCSGGSGYYYGWYQQKSPGSAPVTVIYNNDNKPSDIPSRFSGSKSGSTGTLTITGVQVEDEAVYFCGGYDNSGTGIFGAGTTLTVL
modifications: mouse constant regions
inhibitory activity against the expansion of CD45-negative cells by FSTL1 [2]: exhibited inhibitory activity against the expansion of CD45-negative cells by FSTL1

B7: #6-55: chicken-mouse chimeric anti-FSTL1 antibody clone; variable regions SEQ ID NO: 783 (light), 785 (heavy) (antibody, V domains shown)
VH: AVTLDESGGGLQTPGGALSLVCKGSGFTFTSVTMQWVRQAPGKGLEWVASVCSGSSTYYAPAVKGRATISRDNGQSTVRLQLSNLRPEDTGTYYCAKIAGRARWSCTSAAYNIDAWGHGTEVIVSS
VL: ASTQPSSVSAIPGETVKITCSGGGNNYGWYQQRSPGSAPVTVIYYNDNRPSNIPSRFSGSTSGSTSTLTITGVQADDEAIYYCGSWDSNTDSGIFGAGTTLTVL
modifications: mouse constant regions
inhibitory activity against the expansion of CD45-negative cells by FSTL1 [2]: exhibited inhibitory activity against the expansion of CD45-negative cells by FSTL1; also recorded: Inhibitory activity was confirmed | inhibitory activity against the expansion of CD45-negative cells by FSTL1 [3]: higher inhibitory activity was confirmed in the order of #7-34, #5-2, #6-55, and #8-7

B8: #7-34: chicken-mouse chimeric anti-FSTL1 antibody clone; variable regions SEQ ID NO: 787 (light), 789 (heavy) (antibody, V domains shown)
VH: AVTLDESGGGLQTPGGGLSLVCKASGFTFSSVTMQWVRQAPGKGLEWVASICSGSSTYYGPAVKGRATISRDNGQNTVRLQLNNLRAEDTATYYCAKIVGRGRWSCTSAAYNIDAWGHGTEVIVSS
VL: ASTQPSSVSANPGETVKITCSGGGNNYGWYQQKSPGSAPVTVIYYNNNRPSNIPSRFSGSTSGSTSTLTITGVQAEDEAVYYCGSYEGSTDSGIFGAGTTLTVL
modifications: mouse constant regions
inhibitory activity against the expansion of CD45-negative cells by FSTL1 [1]: higher inhibitory activity and substantially completely inhibited the action of FSTL1 | inhibitory activity against the expansion of CD45-negative cells by FSTL1 [3]: higher inhibitory activity was confirmed in the order of #7-34, #5-2, #6-55, and #8-7; also recorded: stronger inhibitory activity was confirmed in the order of clone #7-34, #5-2, 46-55, and #8-7
